Measurements taken from patent US12134634B2.
Each block holds one substance with its values, some of them ahead of it.

Key:
[1] = biological target: NIR PKA biosensor (… SEQUENCE)
[2] = biological target: NIR JNK biosensor (… SEQUENCE)
[3] = biological target: miRFP670nano-DEVD-miRFP720 FRET-based reporter for caspase-3 activity (… SEQUENCE)

- FRET/miRFP670nano fluorescence ratio [1]: 33%
Substance: Protein Kinase A (PKA) (enzyme)

- FRET/miRFP670nano fluorescence ratio [2]: 35%
Substance: c-Jun N-terminal kinase (JNK) (enzyme)

- FRET/miRFP670nano fluorescence ratio detected at 725 nm/667 nm [3]: 1.65 fold
Substance: caspase-3 (from UniProt P42574) (enzyme)
